{"source": "patent US5344777", "target": "protein having a molecular weight of about 44,000 which constitutes the membrane-bound alcohol dehydrogenase complex of Acetobacter altoacetigenes MH-24 (cytochrome c) (Acetobacter altoacetigenes MH-24)"}
{"substance": "protein having a molecular weight of about 72,000 which constitutes the membrane-bound alcohol dehydrogenase complex of Acetobacter altoacetigenes MH-24 (enzyme)", "values": [{"measurement": "ADH enzyme activity (U/mg protein) in cell homogenate of transformed ADH-deleted mutant 10-80", "result": 0.4, "unit": "U/mg protein"}]}
